The results in this text go back to article PMC3713010, “Sox2 Transcriptionally Regulates Pqbp1, an Intellectual Disability-Microcephaly Causative Gene, in Neural Stem Progenitor Cells”.

Common to all, as to assay: EMSA; 10% glycerol, 20 mM HEPES pH 7.8, 45 mM KCl, 10 mM NaCl, 1 mM EDTA, 1 mM DTT, 0.2 ug/uL BSA, 0.1% NP-40, 50 ng poly-dIdC; 20 ng each GST protein; room temperature 30 min (heterodimers 4 C); 6% PAGE 0.25x TBE
Settings in all cases: protein: recombinant; tags: GST (N-terminal, pGEX-6P-1); label: 32P-dCTP fill-in of the 5' (dG)5 overhangs of both strands (Methods; control probes are given with GGG)

The target of series [1] is Pax6 DNA-binding domain (BD-Pax6) (Mus musculus (B6), UniProt P63015 190-289). In a few lines: (§1)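 Transcription factor DNA-binding domains carrying a GST tag were expressed in E. coli BL21, purified on glutathione-sepharose and tested against annealed candidate cis-element oligonucleotides labelled with 32P-dCTP. Each reaction held 20 ng protein, 40,000–50,000 cpm probe and 50 ng poly-dIdC in HEPES/KCl glycerol buffer with BSA and detergent, incubated 30 min at room temperature, then run on 6% polyacrylamide in 0.25×TBE at 4°C. DNA binding was scored as the radioactivity of the band in the expected shift region, read on a phosphor imager.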
Sequence of Pax6 DNA-binding domain (BD-Pax6) (P63015 190-289): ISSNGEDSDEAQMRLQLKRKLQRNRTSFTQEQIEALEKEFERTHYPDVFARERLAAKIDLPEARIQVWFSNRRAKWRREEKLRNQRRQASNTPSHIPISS

The target of series [2] is T1, Brn2 DNA-binding domain (BD-Brn2) (Mus musculus (B6), UniProt P31360 336-435).
T1 sequence: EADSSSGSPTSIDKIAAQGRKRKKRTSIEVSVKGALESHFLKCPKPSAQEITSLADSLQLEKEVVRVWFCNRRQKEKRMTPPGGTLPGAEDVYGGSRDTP
In a few lines:
as §1

Series [3] has as its target T2, Oct6 DNA-binding domain (BD-Oct6) (Mus musculus (B6), UniProt P21952 317-416).
T2 sequence: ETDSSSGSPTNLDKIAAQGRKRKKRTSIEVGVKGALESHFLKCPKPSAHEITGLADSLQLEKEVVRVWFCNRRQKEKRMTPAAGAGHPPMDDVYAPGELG
A digest of the protocol:
as §1

B1: 59 (dsDNA)
DNA 1: GGGGGAGCTTTTAACAATTTAATTTTGTCTCTACCTCCCCC
DNA 2: GGGGGAGGTAGAGACAAAATTAAATTGTTAAAAGCTCCCCC
B1: the binding result in series [1], in series [2] and in series [3] was “binds” each time.

B2: 61 (dsDNA)
DNA 1: GGGGGTAAATTTTTCTAATCCTGACAAATCTCTTCACCCCC
DNA 2: GGGGGTGAAGAGATTTGTCAGGATTAGAAAAATTTACCCCC
For B2, the binding result in series [1] was “binds”; in series [2] it was “no binding”; in series [3], “binds”.

B3: 60 (dsDNA)
DNA 1: GGGGGAATTTAATTTTGTCTCTACCTTTCACGCTTCTCCTTTGCATTTTCCCCCC
DNA 2: GGGGGGAAAATGCAAAGGAGAAGCGTGAAAGGTAGAGACAAAATTAAATTCCCCC
Take B3: the binding result in series [1], in series [2] and in series [3] was “binds” in each case.

B4: 53 (dsDNA)
DNA 1: GGGGGTGCTTGTGACAAATCTGTCAATTTCTGGTGGGGGCCCCCC
DNA 2: GGGGGGCCCCCACCAGAAATTGACAGATTTGTCACAAGCACCCCC
For the molecule B4, the binding result in series [1], in series [2] and in series [3] was “no binding” throughout.

B5: 62 (dsDNA)
DNA 1: GGGGGTTTAAACAATTGTCCCATTCATTATATTGCAACACCCCC
DNA 2: GGGGGTGTTGCAATATAATGAATGGGACAATTGTTTAAACCCCC
Consider B5, for which the binding result in series [1], in series [2] and in series [3] was “binds” throughout.

B6: 54 (dsDNA)
DNA 1: GGGGGAGGTGTTAAGTGTGGAGTCGTGAGAACAACAATCCAGATAGCCCCC
DNA 2: GGGGGCTATCTGGATTGTTGTTCTCACGACTCCACACTTAACACCTCCCCC
Turning to B6, the figures for the binding result in series [1], in series [2] and in series [3] were “no binding”, “no binding” and “binds”, respectively.

B7: 57 (dsDNA)
DNA 1: GGGGGCCTAAGATTCTTAATCTGACATTGTAGTCCCTACCCCC
DNA 2: GGGGGTAGGGACTACAATGTCAGATTAAGAATCTTAGGCCCCC
With B7, the binding result in series [1] is reported as “binds”; in series [2], “no binding”; in series [3], “binds”.

B8: 58 (dsDNA)
DNA 1: GGGGGTGAGATGGAGGAAATAAGTCTTATTGTTGTTCTCCCCCCC
DNA 2: GGGGGGGAGAACAACAATAAGACTTATTTCCTCCATCTCACCCCC
Take B8: the binding result was “no binding” in series [1], “no binding” in series [2] and “binds” in series [3].

B9: 56 (dsDNA)
DNA 1: GGGGGACACTTATACAATAATAGTATTTATTAATAGTATCCCCC
DNA 2: GGGGGATACTATTAATAAATACTATTATTGTATAAGTGTCCCCC
Consider B9, for which the binding result in series [1], in series [2] and in series [3] was “binds” each time.

B10: 55 (dsDNA)
DNA 1: GGGGGGTAGATTATTTGTCCACCATTCACAAGCACTGAGTTCAATAACCCCCC
DNA 2: GGGGGGTTATTGAACTCAGTGCTTGTGAATGGTGGACAAATAATCTACCCCCC
In the case of B10, the binding result is reported as “no binding” in series [1], “no binding” in series [2] and “binds” in series [3].
